Results as given in patent publication US20230277682A1 (priority 2022, published 2023).

System: H1N1 A/Puerto Rico/08/1934 influenza virus
Format: cell-based

Molecule	antiviral activity against H1N1 in vitro	Fold Increase over Parental Antibody [fold]
mAb11729 (antibody, V domains shown) VH: QVQLVQSGAEVKKSGSSVKVSCKASGGTFSSYAISWVRQAPGQGLEWMGGIIPIFGTPSYAQKFQDRVTITTDESTSTVYMELSSLRSEDTAVYYCARQQPVYQYNMDVWGQGTTVTVSS VL: DIQMTQSPSSLSASVGDRVTITCRASQGIRNNLGWYQQKPLKAPKRLIYAASSLQSGVPSRFSGSGSGTEFTLTISSLQPEDFATYYCLQYNNYPWTFGQGTKVEIK	displays antiviral activity against H1N1 in vitro	–
11729-HC-Cterm-LLQGA-19b (conjugate, left off: a dimerising Fc or GST) heavy: QVQLVQSGAEVKKSGSSVKVSCKASGGTFSSYAISWVRQAPGQGLEWMGGIIPIFGTPSYAQKFQDRVTITTDESTSTVYMELSSLRSEDTAVYYCARQQPVYQYNMDVWGQGTTVTVSSLLQGA VL: DIQMTQSPSSLSASVGDRVTITCRASQGIRNNLGWYQQKPLKAPKRLIYAASSLQSGVPSRFSGSGSGTEFTLTISSLQPEDFATYYCLQYNNYPWTFGQGTKVEIK	–	15.76
11729-HC-Cterm-LLQGA-10b (conjugate, left off: a dimerising Fc or GST) heavy: QVQLVQSGAEVKKSGSSVKVSCKASGGTFSSYAISWVRQAPGQGLEWMGGIIPIFGTPSYAQKFQDRVTITTDESTSTVYMELSSLRSEDTAVYYCARQQPVYQYNMDVWGQGTTVTVSSLLQGA VL: DIQMTQSPSSLSASVGDRVTITCRASQGIRNNLGWYQQKPLKAPKRLIYAASSLQSGVPSRFSGSGSGTEFTLTISSLQPEDFATYYCLQYNNYPWTFGQGTKVEIK	–	6.96
11729-HC-Cterm-LLQGA-19C (conjugate, left off: a dimerising Fc or GST) heavy: QVQLVQSGAEVKKSGSSVKVSCKASGGTFSSYAISWVRQAPGQGLEWMGGIIPIFGTPSYAQKFQDRVTITTDESTSTVYMELSSLRSEDTAVYYCARQQPVYQYNMDVWGQGTTVTVSSLLQGA VL: DIQMTQSPSSLSASVGDRVTITCRASQGIRNNLGWYQQKPLKAPKRLIYAASSLQSGVPSRFSGSGSGTEFTLTISSLQPEDFATYYCLQYNNYPWTFGQGTKVEIK	–	28.78
11729-HC-Cterm-LLQGA-19a (conjugate, left off: a dimerising Fc or GST) heavy: QVQLVQSGAEVKKSGSSVKVSCKASGGTFSSYAISWVRQAPGQGLEWMGGIIPIFGTPSYAQKFQDRVTITTDESTSTVYMELSSLRSEDTAVYYCARQQPVYQYNMDVWGQGTTVTVSSLLQGA VL: DIQMTQSPSSLSASVGDRVTITCRASQGIRNNLGWYQQKPLKAPKRLIYAASSLQSGVPSRFSGSGSGTEFTLTISSLQPEDFATYYCLQYNNYPWTFGQGTKVEIK	–	7.75
